This note sets out measurements from patent US20160312207A1 (Stanford University, published 2016).

What is called Kd is the concentration at which binding is half-saturated. A higher Kd goes with lower affinity.

A value given as a limit tells only on which side of the number the result lay.

Test [1] addresses T1, human RSPO2 (human, UniProt Q6UXX9 22-243, limits assumed).
T1 construct: Recombinant protein; also called R-spondin 2; recombinant human RSPO2
The experiment in a line: Biacore (SPR). On the technique in general: In SPR one partner is held on a chip, and binding of the other changes the refractive index at the surface.

Test [2] has as its target T2, human RSPO3 (human, UniProt Q9BXY4 22-272, limits assumed).
T2 construct: Recombinant protein; also called R-spondin 3
T2 sequence (looked up): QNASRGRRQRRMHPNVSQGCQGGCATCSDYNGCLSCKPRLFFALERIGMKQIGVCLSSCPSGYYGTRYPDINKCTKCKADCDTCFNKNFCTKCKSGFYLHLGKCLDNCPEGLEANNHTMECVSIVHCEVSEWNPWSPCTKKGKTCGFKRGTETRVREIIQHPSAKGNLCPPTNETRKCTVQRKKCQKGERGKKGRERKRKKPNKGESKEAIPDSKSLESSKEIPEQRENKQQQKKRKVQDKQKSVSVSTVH
The test is described as follows: Biacore (SPR).

Test [3] addresses T3, human RSPO4 (human, UniProt Q2I0M5 20-234, limits assumed).
T3 construct: Recombinant protein; also called R-spondin 4
The experiment in a line: Biacore (SPR).

Test [4] has as its target T4, human RSPO1 (human, UniProt Q2MKA7 21-263, limits assumed).
T4 construct: Recombinant protein; also called R-spondin 1; recombinant R-spondin
The test is described as follows: Biacore (SPR).

Test [5] addresses T1, human RSPO2. The experiment in a line: Biacore (SPR), against ZNRF3-Fc ECD fusion tested in parallel.
Test [6] addresses T2, human RSPO3. Described as above.
The target in test [7] is T4, human RSPO1. The test is described as follows: Biacore (SPR); human RSPO1.
The target in test [8] is T3, human RSPO4. The test is described as follows: Biacore (SPR); human RSPO4.
The target in test [9] is T1, human RSPO2. The test is described as follows: Biacore (SPR); human RSPO2.
For test [10], the target named is T2, human RSPO3. The experiment in a line: Biacore (SPR); human RSPO3.

T1 sequence (Q6UXX9 22-243 limits assumed): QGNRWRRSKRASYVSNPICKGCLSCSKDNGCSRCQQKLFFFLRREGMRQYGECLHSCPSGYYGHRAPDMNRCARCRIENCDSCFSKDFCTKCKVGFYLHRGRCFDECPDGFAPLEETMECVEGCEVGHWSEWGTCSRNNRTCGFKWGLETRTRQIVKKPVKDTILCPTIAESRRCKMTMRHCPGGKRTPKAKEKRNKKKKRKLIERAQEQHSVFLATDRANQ
T3 sequence (Q2I0M5 20-234 limits assumed): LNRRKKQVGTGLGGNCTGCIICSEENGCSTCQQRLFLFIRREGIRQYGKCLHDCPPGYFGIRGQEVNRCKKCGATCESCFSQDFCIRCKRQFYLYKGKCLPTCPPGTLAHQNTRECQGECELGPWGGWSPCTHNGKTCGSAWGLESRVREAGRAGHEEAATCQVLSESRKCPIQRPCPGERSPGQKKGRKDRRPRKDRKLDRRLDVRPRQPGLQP
T4 sequence (Q2MKA7 21-263 limits assumed): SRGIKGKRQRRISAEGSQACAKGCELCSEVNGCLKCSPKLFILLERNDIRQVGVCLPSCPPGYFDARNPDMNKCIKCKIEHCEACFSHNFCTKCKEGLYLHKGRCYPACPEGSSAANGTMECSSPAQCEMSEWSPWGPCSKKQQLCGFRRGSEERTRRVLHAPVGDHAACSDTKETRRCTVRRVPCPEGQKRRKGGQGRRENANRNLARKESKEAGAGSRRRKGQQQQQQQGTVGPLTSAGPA

Take ZNRF3-Fc ECD fusion (Fc fusion): the equilibrium dissociation constant (Kd) was 12.8 nM in the test with human RSPO2 [1], 6.58 nM with human RSPO3 [2], over 1000 nM with human RSPO4 [3] and 381 nM in the test with human RSPO1 [4].

B1: soluble RNF43-Fc ECD fusion protein (Fc fusion)
chain: GFGHTGRVLAAAVESERSAEQKAVIRVIPLKMDPTGKLNLTLEGVFAGVAEVTPAEGKLMQSHPLYLCNASDDDNLEPGFISIVKLESPRRAPRPCLSLASKARMAGERGANAVLFDITEDRSAAEQLQQPLGLTKPVVLIWGSDAAKLMEFVYKNRKAYVWIELKEPPRRLEPRGPTIKPCPPCKCPAPNLLGGPSVFIFPPKIKDVLMISLSPIVTCVVVDVSEDDPDVQISWFVNNVEVHTAQTQTHREDYNSTLRVVSALPIQHQDWMSGKEFKCKVNNKDLPAPIERTISKPKGSVRAPQVYVLPPPEEEMTKKQVTLTCMVTDFMPEDIYVEWTNNGKTELNYKNTEPVLDSDGSYFMYSKLRVEKKNWVERNSYSCSVVHEGLHNHHTTKSFSRTPGK
notes: No linker between ECD and Fc is stated; also called RNF43 ECD-Fc fusion protein; RNF43 ECD
For the molecule B1, the “fold stronger affinity than the ZNRF3-Fc ECD fusion” value is about 7000 fold in the test with human RSPO2 [5] and about 4500 fold in the test with human RSPO3 [6]. Also, the dissociation constant Kd in the test with human RSPO1 [7] was found to be 53 nM; in the test with human RSPO4 [8], 142 nM; in the test with human RSPO2 [9], 0.00182 nM; in the test with human RSPO3 [10] it was 0.00145 nM.
